Where two headings read alike, the source gives them in different places. A value given as a limit tells only on which side of the number the result lay.

Assay in all cases: NMR 15N-HSQC titration
The target of series [1] is T1, Ets-1 ΔN301 (murine, UniProt P27577 301-440).
T1 sequence: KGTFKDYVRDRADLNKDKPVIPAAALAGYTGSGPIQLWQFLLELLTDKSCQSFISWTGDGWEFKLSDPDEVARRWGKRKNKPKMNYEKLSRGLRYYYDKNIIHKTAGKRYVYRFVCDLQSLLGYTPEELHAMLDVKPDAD

Series [2] has as its target T1, Ets-1 ΔN301. This is another data set of the same source.
Series [3] has as its target T1, Ets-1 ΔN301. This is another data set of the same source.
Series [4] addresses T2, Ets-1 ΔN279 (murine, UniProt P27577 279-440).
T2 sequence: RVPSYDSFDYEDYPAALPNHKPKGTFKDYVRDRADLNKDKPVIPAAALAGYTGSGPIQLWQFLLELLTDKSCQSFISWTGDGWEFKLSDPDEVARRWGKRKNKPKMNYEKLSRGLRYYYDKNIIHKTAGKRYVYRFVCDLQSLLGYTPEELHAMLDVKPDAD

The target of series [5] is T1, Ets-1 ΔN301. The source holds these as a separate data set.

B1: DNANSP15 (dsDNA)
DNA 1: GATGCAGTGTAGTCG
DNA 2: CGACTACACTGCATC
Molecule B1 had a dissociation constant Kd in series [1] of less than 10 µM.

B2: DNASP9 (dsDNA)
DNA 1: GCCGGAAGT
DNA 2: ACTTCCGGC
Regarding B2, the binding result in series [2] is recorded as “binds”.

B3: DNANSP9 (dsDNA)
DNA 1: GCACTCTAG
DNA 2: CTAGAGTGC
B3 yielded a Kd in series [3] of approximately 10 µM.

B4: DNASP14 (dsDNA)
DNA 1: CCAAGCCGGAAGTG
DNA 2: CACTTCCGGCTTGG
B4: the binding result in series [4] is listed as “binds”.

B5: DNASP12 (dsDNA)
DNA 1: CAGCCGGAAGTG
DNA 2: CACTTCCGGCTG
B5: the binding result in series [5] is recorded as “binds”.
